# In patent publication US20150183839A1, “SOYBEAN NODULATION REGULATORY PEPTIDES AND METHODS OF USE” (priority 2010, published 2015):
# “Also recorded” adds a separate entry of the source.
# Columns and labels:
# [1] = tested on: CLE30, CLE60 and CLE80 gene expression in soybean root; experiment: RT-qPCR of CLE gene expression in soybean roots after nitrogen source treatment; assay type: in vivo, Glycine max; settings: for expression of CLE30 and CLE80 in roots / CLE60 expression in roots: 10 mM for two weeks; for expression of CLE30 and CLE80 in roots: relative to KCl control; for CLE60 expression in roots: relative to control
# Method: FIG. 15. To test if CLE60 (GmNIC1) is induced by alternative nitrogen sources we treated soybeans with 10 mM solutions of the following chemicals for two weeks prior to harvesting root tissue to analyse gene expression: Ammonium Chloride (NH4Cl), Potassium Nitrate (KNO3) and Potassium Chloride control (KCl).
# (§1) Soybean (Glycine max) lines used include the wild type Williams and its isogenic supernodulating nark mutant lines, nod4 and nod3-7 and the wild type Bragg and its isogenic hypernodulating nark mutant line, nts1116. Plants were grown in controlled glasshouse conditions (28° C./26° C. day/night, 16 hour day) in autoclaved pots and vermiculite where sterile growing conditions were required. Seeds requiring sterilisation were treated with 70% ethanol, 3% H2O2 for 1 min, followed by several rinses with water. Plants were watered as required with a modified nutrient solution lacking nitrogen (Herridge, 1982). Plants were inoculated with approximately OD600 0.01 Bradyrhizobium japonicum CB1809 or the corresponding NF mutant nodU grown in yeast-mannitol broth (YMB) at 28° for two days. For nitrate treatments, plants were watered with the indicated solutions of KNO3 every two days. For grafting experiments, reciprocal grafting was carried out 8 d after sowing and the graft unions were allowed to recover for 6 d before B. japonicum inoculation. Nodulation was scored three weeks after inoculation.
# For gene expression analyses, tissue was snap frozen and homogenized in liquid nitrogen using a mortar and pestle. RNA was extracted using TRIzol reagent according to the manufacturer's instructions (Invitrogen). DNAse treatment (Fermentas, Ontario) was performed on 1 μg of RNA in the presence of MgCL2. cDNA was synthesised with SuperScript III (Invitrogen) from 0.5 μg DNAse treated RNA. RT-qPCR was conducted using an ABI 7900HT cycler in 384 well plates with SYBR green fluorescence detection. All reactions were performed in duplicate for at least three biological replicates using intron-spanning primers where possible and a target amplicon of approximately 100 bp (full primer sequences are included in Table 2). Gene expression values were calculated relative to ATP synthase after normalisation for PCR efficiency and plot correlation (R2) values of each primer pair as determined by LinRegPCR 7.5 (Ramakers et al., 2003).
# In a preliminary study to determine if nitrate can induce the expression of the soybean CLE genes, root tissue was harvested after treatment with either 0 mM (water control) or 10 mM KNO3 for two weeks. […] A more thorough study to identify the induction of CLE60 expression by nitrate was subsequently performed using, root tissue harvested at 0, 8 or 24 h after the commencement of the above treatments.
# Soybean plants were treated with either 0, 2, 5, 10 or 15 mM KNO3 for 2 days prior to, and for 2 weeks following, rhizobia inoculation. The treated plants were then harvested simultaneously for RT-qPCR and nodule count studies.
# [2] = tested on: soybean nodulation; experiment: Nodule numbers of soybean plants treated with KNO3 (incl. grafted plants); assay type: in vivo, Glycine max
# Method: as §1
# Soybean plants were treated with either 0, 2, 5, 10 or 15 mM KNO3 for 2 days prior to, and for 2 weeks following, rhizobia inoculation. The treated plants were then harvested simultaneously for RT-qPCR and nodule count studies. […]
# [3] = tested on: Medicago truncatula nodulation; settings: cited from earlier work
# [4] = tested on: soybean nodulation; experiment: Over-expression of CLE genes in transgenic soybean hairy roots, nodule number (Example 1); assay type: in vivo, Glycine max; settings: for NARK/SUNN/HAR1 dependent inhibition / Systemic activity: Glycine max; for nodulation (nodule number) on over-expression: vs vector-only control
# Method: as §1
# The full length CDS of CLE30, CLE60 and CLE80 was directionally cloned into the pKANNIBAL vector for expression of RNAi constructs (Wesley et al., 2001). Pfu polymerase (Stratagene, La Jolla, Calif.) was used to amplify PCR products incorporating restriction nuclease sites from cDNA samples shown to express the target gene. XhoI/EcoRI (for) and KpnI (rev) restriction sites were included in the primer sequences depending on internal restriction sites of each gene (full primer sequences are included in Table 2). Likely clones were confirmed by direct DNA sequencing and capillary separation. Constructs were sub-cloned into p15SRK2 or pM1KCK1 integration vectors (A. Kereszt, unpublished) as a NotI fragment before tri-parental mating to introduce the constructs into Agrobacterium rhizogenes K599. For transgenic root verification in the CLE60 over-expression experiments the DsRed reporter was subcloned into pM1KCK1 from pHairyRed, which is a modified version of pCAMBIA (M-H Lin, P M Gresshoff, B J Ferguson, unpublished). Tri-parental mating was used to introduce DsRed into A. rhizogenes K599 carrying the CLE60 construct. A. rhizogenes were subsequently used for the induction of transgenic soybean hairy roots according to Kereszt et al (2007).
# To determine if the soybean CLE peptides regulate nodulation in a NARK-dependent manner, a reverse-genetics approach using a hairy-root transformation system was used. Over-expression of a systemic Q signal would be expected to inhibit nodulation, even in non-transformed roots. To test this, the complete CDS of CLE30, CLE60 or CLE80 was cloned into the pKANNIBAL vector for the expression of efficient RNAi constructs (Wesley et al., 2001). However, to generate over-expressing constructs, the antisense construct was omitted and the Pdk intron of pKANNIBAL was left intact. Previous studies have shown the inclusion of an intron can lead to higher and more consistent expression levels in transgenic plants (Norris et al., 1993).
# Tri-parental mating was used to integrate the constructs into Agrobacterium rhizogenes K599 which induces the formation of transgenic hairy roots in soybean (Kereszt et al., 2007).
# [5] = tested on: G. max nodulation; experiment: Overexpression of GmRIC1 in hairy roots of G. max, nodules counted (Example 2); assay type: in vivo, Glycine max; settings: vs empty vector; for nodulation on overexpression: G. max WT (Williams)
# Method: (§2) Transformation was done using the hairy root method. Agrobacterium rhizogenes containing a vector with the RIC1 gene (CLE30) and 35s promoter was injected into the stems of young plants. Once transgenic ‘hairy roots’ began growing from the stems the primary roots were removed and the plants with the transgenic roots were replanted and inoculated with the appropriate rhizobia strain.
# (§3) All plants were grown in and in 30 well seed trays of grade 3 vermiculite. G. soja seeds were scarified and soaked in MQ H2O before planting. All plants were grown in growth cabinets under 16 h day and 8 h night conditions. P. vulgaris and G. max were grown at 28° C. G. soja were grown at 24° C. All plants were fertilised with a no nitrogen fertiliser and B&D solution (Broughton & Dilworth 1971).
# (§4) A. rhizogenes K599 with either p15SRK2::GmRIC1 ox or p15SRK2 were grown on LB media (10 g/L Tryptone, 5 g/L Yeast extract, 10 g/L NaCl) for 2 days at 28° C. The bacteria were harvested by scraping it from the agar plate. The harvested bacteria were suspended in 3 mL MQ H2O, ensuring no lumps remained.
# (§5) When all plants had unfolded cotyledons they were injected at the hypocotyl as close to the junction of the cotyledons as possible with the A. rhizogenes solutions (Kereszt et al, 2007; Estrada-Navarrete, 2006). Half of each of the WT and mutant lines received A. rhizogenes p15SRK2+GmRIC1 OX and the other half of the plants received A. rhizogenes p15SRK2; Totalling 4 treatment groups.
# (§6) The infection technique was the same for all species using A. rhizogenes K599. To increase the likelihood of the K599 producing hairy roots, the A. rhizogenes was inoculated with 1 mL 200 μM acetosyringone one hour prior to harvesting the bacteria. After infection all seed trays were misted with H2O, covered and sealed to ensure high humidity.
# Once root tips were visible at the point of infection, the primary roots of the plants were removed and the hairy roots were re-planted. Plants were left in the growth cabinets for one week to form an adequate root system. […] After 2-3 weeks plants were uprooted and the nodules counted.
# [6] = tested on: G. soja nodulation; experiment: Overexpression of GmRIC1 in hairy roots of G. soja, nodules counted; assay type: in vivo, Glycine soja; settings: WT G. soja, vs vector only
# Method: as §2, §3
# as §4, with “remained. […]” for “remained.”
# Once root tips were visible at the point of infection, the primary roots of the plants were removed and the hairy roots were re-planted. […] After 2-3 weeks plants were uprooted and the nodules counted.
# [7] = tested on: P. vulgaris nodulation; experiment: Overexpression of GmRIC1 in hairy roots of P. vulgaris, nodules counted; assay type: in vivo, Phaseolus vulgaris; settings: vs vector only
# Method: as §2, §3, §4, §5, §6
# Once root tips were visible at the point of infection, the primary roots of the plants were removed and the hairy roots were re-planted. Plants were left in the growth cabinets for one week to form an adequate root system. The plants were subsequently transferred to the glasshouse and re-potted into larger pots. After re-potting plants were also inoculated with the appropriate strain of rhizobia for that particular species. Plants were watered and fertilised with B&D solution (Broughton & Dilworth 1971). After 2-3 weeks plants were uprooted and the nodules counted.
# [8] = nod4 supernodulation nark mutant plants
# [9] = wild-type (Williams) soybean, transgenic hairy roots
molecule,measurement,setting,value
"O=[N+]([O-])[O-].[K+] [KNO3, Potassium Nitrate]",CLE30 expression in roots,[1]; 10 mM KNO3 for two weeks vs 0 mM water control,unchanged
same,expression of CLE30 and CLE80 in roots,[1],not that of CLE80 or CLE30
same,CLE60 expression in roots,[1],significantly induced expression of CLE60
same,KNO3 level at which CLE60 was significantly induced (as low as),[1]; 2 days prior to and 2 weeks following rhizobia inoculation,2 mM
same,nodule numbers with KNO3 concentration,"[2]; 0, 2, 5, 10 or 15 mM KNO3, 2 weeks after inoculation",reduced in an inverse manner
same,nodule numbers of grafted plants,"[2]; 5 mM or 10 mM KNO3, WT scion, wild-type rootstock compared to nod4 mutant rootstock",reduced significantly
"Cl.N [NH4Cl, Ammonium Chloride]",expression of CLE30 and CLE80 in roots,[1],did not affect expression
same,CLE60 expression in roots,[1],induced expression of CLE60
"CLE12: Medicago truncatula CLE peptide reported to reduce nodulation (Mortier et al., 2010) (LEGGSNIDSQRLLHELMVDRIKQKRSRTDLEDKAVPGDRLSPGGPNHIHN; UniProt G7ZZZ3 32-81, looked up)",NARK/SUNN/HAR1 dependent inhibition,[3],partial
same,Systemic activity,[3],yes
"CLE13: Medicago truncatula CLE peptide reported to reduce nodulation (Mortier et al., 2010) (LRDHPLIHKNIDSRSLLQKLRIHISNHKQVRDISGDRLSPAGPDPQHNGRSPPRK; UniProt G7JV15 30-84, looked up)",NARK/SUNN/HAR1 dependent inhibition,[3],partial
same,Systemic activity,[3],yes
"CLE80: Glycine max CLE protein, SEQ ID NO:7; rhizobia inoculation induced CLE (protein, Glycine max) MGNTSATLVPILALIMFSTFFMTLQARSLHGHNPLFAHKKVVDIQNFLHKSGIHLSKRVRIPFGDDLPLAPADRLAPGGPDPQHNVRAPPRKP",NARK/SUNN/HAR1 dependent inhibition,[4],yes
same,Systemic activity,[4],yes
same,nodulation (nodule number) on over-expression,[4]; [8],no reduction in the nodule numbers; also recorded: complete lack of nodule inhibition; also recorded: nodule numbers were not reduced
same,nodulation (nodule number) on over-expression,[4]; [9],completely abolishes soybean nodulation; also recorded: completely eliminated nodulation; also recorded: eliminated nodulation completely; also recorded: nodules were eliminated
"CLE30: Glycine max CLAVATA3/ESR-related (CLE) protein, SEQ ID NO:5; rhizobia induced CLE, over-expressed in transgenic hairy roots (protein, Glycine max, rhizobia induced CLE, over-expressed in transgenic hairy roots) MANATMATRVSILIALIILSTFFMTLQASNLHGHPFIRENNIADSHHFLHKYLDDLSKHIHVQDADDAPHKDGNTHRLAPEGPDPHHNFATPPRN",NARK/SUNN/HAR1 dependent inhibition,[4],yes
same,Systemic activity,[4],yes
same,nodulation (nodule number) on over-expression,[4]; [8],no reduction in the nodule numbers; also recorded: complete lack of nodule inhibition; also recorded: nodule numbers were not reduced
same,nodulation (nodule number) on over-expression,[4]; [9],completely abolishes soybean nodulation; also recorded: completely eliminated nodulation; also recorded: eliminated nodulation completely; also recorded: nodules were eliminated
same,nodulation on overexpression,[5],inhibits nodulation
same,nodulation on overexpression,[5]; listed as GmRIC1,completely inhibits nodulation
same,nodule numbers on overexpression,[5]; G. max nod4 lacking functional NARK,nodule numbers were unchanged
same,nodulation on overexpression,[6],inhibits nodulation
same,nodulation on overexpression,[6]; listed as GmRIC1,completely inhibited nodulation; also recorded: complete inhibition of nodulation
same,nodulation on overexpression,[7]; P. vulgaris R32 supernodulation (AON) mutant,no effect
same,nodulation on overexpression,"[7]; P. vulgaris R32 supernodulation (AON) mutant, listed as GmRIC1",no significant effect
same,nodulation on overexpression,[7]; P. vulgaris WT cv. OAC RICO,inhibits nodulation
same,nodulation on overexpression,"[7]; P. vulgaris WT cv. OAC RICO, listed as GmRIC1",inhibition of nodulation
"CLE60: Glycine max CLE protein, SEQ ID NO:6; nitrate induced CLE acting locally in the root (protein, Glycine max, nitrate induced CLE acting locally in the root) MLEALGEMANAKQVLCLILLVLLFSKLESRSLEAFIEGKKTLAKGCSRELIEKSQLLKASFAKATTRFTNPRVSKRLSPGGPDQKHH",NARK/SUNN/HAR1 dependent inhibition,[4],yes
same,Systemic activity,[4],no
same,nodulation (nodule number) on over-expression,[4]; [8],no corresponding reduction in nodulation; also recorded: nodule numbers were not reduced
same,reduction in nodulation,"[4]; over-expression, wild-type soybean",~50%
same,nodulation (nodule number) on over-expression,[4]; [9],only partially reduces nodulation; also recorded: reduced nodulation by approximately half; also recorded: nodules were reduced or partially eliminated
